Molecular target: HLA-A*02:01 (Homo sapiens, UniProt P04439, D140Y/D185E/D98H/E176V/E277Q/G131W/G231S/I119V/I121R/I166T/I218V/L300P/L318F/N151K/N90K/P208A/P217A/Q86G/Q94H/R138H/R169H/T345S)
Experiment: MHC binding assay (UV-ligand exchange, beta2m ELISA)
Conditions: binding to HLA-A*02:01, β2m ELISA
Text: Candidate peptides for T cell based therapies according to the present invention were further tested for their MHC binding capacity (affinity). The individual peptide-MHC complexes were produced by UV-ligand exchange, where a UV-sensitive peptide is cleaved upon UV-irradiation, and exchanged with the peptide of interest as analyzed. Only peptide candidates that can effectively bind and stabilize the peptide-receptive MHC molecules prevent dissociation of the MHC complexes. To determine the yield of the exchange reaction, an ELISA was performed based on the detection of the light chain (β2m) of stabilized MHC complexes. The assay was performed as generally described in Rodenko et al. (Rodenko et al., 2006).
96 well MAXISorp plates (NUNC) were coated over night with 2 ug/ml streptavidin in PBS at room temperature, washed 4× and blocked for 1 h at 37° C. in 2% BSA containing blocking buffer. Refolded HLA-A*02:01/MLA-001 monomers served as standards, covering the range of 15-500 ng/ml. Peptide-MHC monomers of the UV-exchange reaction were diluted 100 fold in blocking buffer. Samples were incubated for 1 h at 37° C., washed four times, incubated with 2 ug/ml HRP conjugated anti-82m for 1 h at 37° C., washed again and detected with TMB solution that is stopped with […]. Absorption was measured at 450 nm. Candidate peptides that show a high exchange yield (preferably higher than 50%, most preferred higher than 75%) are generally preferred for a generation and production of antibodies or fragments thereof, and/or T cell receptors or fragments thereof, as they show sufficient avidity to the MHC molecules and prevent dissociation of the MHC complexes.

| Peptide exchange (MHC class I binding score, peptide exchange yield) | Substance |
| --- | --- |
| +++ (≥50 = +++) | 179 (TLGEIIKGV; listed as Homo sapiens) [compound 179] |
| +++ (≥50 = +++) | 180 (RLYEEEIRI; listed as Homo sapiens) [compound 180] |
| +++ (≥50 = +++) | 181 (LLWAPTAQA; listed as Homo sapiens) [compound 181] |
| +++ (≥50 = +++) | 182 (GLQDGFQITV; listed as Homo sapiens) [compound 182] |
| ++ (≥20% = ++) | 184 (ALDSTIAHL; listed as Homo sapiens) [compound 184] |
| ++ (≥20% = ++) | 185 (TLYQGLPAEV; listed as Homo sapiens) [compound 185] |
| ++ (≥20% = ++) | 187 (SILKEDPFL; listed as Homo sapiens) [compound 187] |
| ++ (≥20% = ++) | 188 (VLGEEQEGV; listed as Homo sapiens) [compound 188] |
| +++ (≥50 = +++) | 190 (SLSTELFKV; listed as Homo sapiens) [compound 190] |
| +++ (≥50 = +++) | 191 (AAIEIFEKV; listed as Homo sapiens) [compound 191] |
| ++ (≥20% = ++) | 192 (TLLPSSGLVTL; listed as Homo sapiens) [compound 192] |
| +++ (≥50 = +++) | 193 (ALFHMNILL; listed as Homo sapiens) [compound 193] |
| ++ (≥20% = ++) | 194 (KLLEEVQLL; listed as Homo sapiens) [compound 194] |
| +++ (≥50 = +++) | 195 (VIIQNLPAL; listed as Homo sapiens) [compound 195] |
| ++ (≥20% = ++) | 198 (ILTNKVVSV; listed as Homo sapiens) [compound 198] |
| ++ (≥20% = ++) | 199 (SVADLAHVL; listed as Homo sapiens) [compound 199] |
| +++ (≥50 = +++) | 200 (IMPTFDLTKV; listed as Homo sapiens) [compound 200] |
| +++ (≥50 = +++) | 204 (SEWGSPHAAVP; listed as Homo sapiens) [compound 204] |

| Peptide exchange (MHC class I binding score, peptide exchange yield) | Substance |
| --- | --- |
| ++++ (≥75% = ++++) | 206 (GLDAFRIFL; listed as Homo sapiens) [compound 206] |
| +++ (≥50 = +++) | 207 (KLFETVEEL; listed as Homo sapiens) [compound 207] |
| ++ (≥20% = ++) | 208 (HLNNDRNPL; listed as Homo sapiens) [compound 208] |
| +++ (≥50 = +++) | 210 (GLAGDNIYL; listed as Homo sapiens) [compound 210] |
| +++ (≥50 = +++) | 211 (LLTTVLINA; listed as Homo sapiens) [compound 211] |
| ++ (≥20% = ++) | 212 (MTLSEIHAV; listed as Homo sapiens) [compound 212] |
| +++ (≥50 = +++) | 213 (ILAVDGVLSV; listed as Homo sapiens) [compound 213] |
| +++ (≥50 = +++) | 214 (ALFETLIQL; listed as Homo sapiens) [compound 214] |
| ++ (≥20% = ++) | 215 (QIADIVTSV; listed as Homo sapiens) [compound 215] |
| ++ (≥20% = ++) | 216 (ALSTVTPRI; listed as Homo sapiens) [compound 216] |
| +++ (≥50 = +++) | 217 (LLWPSSVPA; listed as Homo sapiens) [compound 217] |
| +++ (≥50 = +++) | 218 (SLTGANITV; listed as Homo sapiens) [compound 218] |
| ++ (≥20% = ++) | 219 (GVVPTIQKV; listed as Homo sapiens) [compound 219] |
| +++ (≥50 = +++) | 220 (ALSELERVL; listed as Homo sapiens) [compound 220] |
| ++ (≥20% = ++) | 221 (IMLNSVEEI; listed as Homo sapiens) [compound 221] |
| ++ (≥20% = ++) | 222 (LLTGVFAQL; listed as Homo sapiens) [compound 222] |
| +++ (≥50 = +++) | 223 (ALHPVQFYL; listed as Homo sapiens) [compound 223] |

The next lines start with the substance.

| Substance | Peptide exchange (MHC class I binding score, peptide exchange yield) |
| --- | --- |
| 148 (YLILSSHQL; listed as Homo sapiens) [compound 148] | +++ (≥50 = +++) |
| 149 (NMADGQLHQV; listed as Homo sapiens) [compound 149] | ++ (≥20% = ++) |
| 150 (VLLDMVHSL; listed as Homo sapiens) [compound 150] | +++ (≥50 = +++) |
| 151 (DISKRIQSL; listed as Homo sapiens) [compound 151] | ++ (≥20% = ++) |
| 153 (KLVELEHTL; listed as Homo sapiens) [compound 153] | +++ (≥50 = +++) |
| 154 (AIIKEIQTV; listed as Homo sapiens) [compound 154] | ++ (≥20% = ++) |
| 155 (TLDSYLKAV; listed as Homo sapiens) [compound 155] | ++ (≥20% = ++) |
| 158 (YLDPLWHQL; listed as Homo sapiens) [compound 158] | +++ (≥50 = +++) |
| 159 (QLGPVPVTI; listed as Homo sapiens) [compound 159] | +++ (≥50 = +++) |
| 160 (TLQEWLTEV; listed as Homo sapiens) [compound 160] | +++ (≥50 = +++) |
| 161 (NLLDENVCL; listed as Homo sapiens) [compound 161] | ++++ (≥75% = ++++) |
| 162 (GLLGNLLTSL; listed as Homo sapiens) [compound 162] | +++ (≥50 = +++) |
| 163 (GLEERLYTA; listed as Homo sapiens) [compound 163] | ++ (≥20% = ++) |
| 164 (MLIIRVPSV; listed as Homo sapiens) [compound 164] | +++ (≥50 = +++) |
| 165 (SLLDYEVSI; listed as Homo sapiens) [compound 165] | +++ (≥50 = +++) |
| 166 (LLGDSSFFL; listed as Homo sapiens) [compound 166] | +++ (≥50 = +++) |
| 167 (LVVDEGSLVSV; listed as Homo sapiens) [compound 167] | +++ (≥50 = +++) |
| 168 (VIFEGEPMYL; listed as Homo sapiens) [compound 168] | +++ (≥50 = +++) |
| 169 (ALADLSVAV; listed as Homo sapiens) [compound 169] | +++ (≥50 = +++) |
| 170 (FIAAVVEKV; listed as Homo sapiens) [compound 170] | ++ (≥20% = ++) |
| 171 (LLLLDVPTA; listed as Homo sapiens) [compound 171] | ++ (≥20% = ++) |
| 173 (RLIDIYKNV; listed as Homo sapiens) [compound 173] | +++ (≥50 = +++) |
| 174 (ALYSGDLHAA; listed as Homo sapiens) [compound 174] | ++ (≥20% = ++) |
| 175 (SLLDLVQSL; listed as Homo sapiens) [compound 175] | +++ (≥50 = +++) |
| 176 (VQSGLRILL; listed as Homo sapiens) [compound 176] | ++ (≥20% = ++) |
| 177 (ALINVLNAL; listed as Homo sapiens) [compound 177] | +++ (≥50 = +++) |
| 178 (SLVSWQLLL; listed as Homo sapiens) [compound 178] | ++++ (≥75% = ++++) |
